{"source": "paper PMC12102759", "about": "(2025)", "parents": {"B1": {"name": "SH3BP2 peptide 410-425 (SH3 domain-binding protein 2), 16-mer library wild type / TNKS ANK (TNKS 12 ANK repeats, residues 174-649) (parent complex)", "chain 1": "LPHLQRSPPDGQSFRS", "chain 2": "TGVPAVSGALRELLEACRNGDVSRVKRLVDAANVNAKDMAGRKSSPLHFAAGFGRKDVVEHLLQMGANVHARDDGGLIPLHNACSFGHAEVVSLLLCQGADPNARDNWNYTPLHEAAIKGKIDVCIVLLQHGADPNIRNTDGKSALDLADPSAKAVLTGEYKKDELLEAARSGNEEKLMALLTPLNVNCHASDGRKSTPLHLAAGYNRVRIVQLLLQHGADVHAKDKGGLVPLHNACSYGHYEVTELLLKHGACVNAMDLWQFTPLHEAASKNRVEVCSLLLSHGADPTLVNCHGKSAVDMAPTPELRERLTYEFKGHSLLQAAREADLAKVKKTLALEIINFKQPQSHETALHCAVASLHPKRKQVTELLLRKGANVNEKNKDFMTPLHVAAERAHNDVMEVLHKHGAKMNALDTLGQTALHRAALAGHLQTCRLLLSYGSDPSIISLQGFTAAQMGNEAVQQILSESTPIRTSD"}}}
{"variants_of": "B1", "test": "proteomic peptide phage display deep mutational scan (ProP-PD DMS): M13 P8 16-mer library selected against immobilised GST-tagged bait for four days (rounds), NGS of the eluted pools per day and pseudo-replica; bait immobilised on MaxiSorp plates (10 µg), library pre-cleared on GST, 2 h binding at 4 °C, five washes; one round per day, days 1-4; value from days 2 and 3"}
{"variant": "chain 1 F14L", "screen value": "0.000394 average fractional NGS count over selection days 2 and 3 (reads of this peptide / all reads for the bait, averaged over …"}
{"variant": "chain 1 Q5F", "screen value": "0.00256 average fractional NGS count over selection days 2 and 3 (reads of this peptide / all reads for the bait, averaged over …"}
{"variant": "chain 1 Q5A", "screen value": "0.000231 average fractional NGS count over selection days 2 and 3 (reads of this peptide / all reads for the bait, averaged over …"}
{"variant": "chain 1 S13N", "screen value": "0.000503 average fractional NGS count over selection days 2 and 3 (reads of this peptide / all reads for the bait, averaged over …"}
{"variant": "chain 1 P2L", "screen value": "0.000238 average fractional NGS count over selection days 2 and 3 (reads of this peptide / all reads for the bait, averaged over …"}
{"variant": "chain 1 F14M", "screen value": "0.0018 average fractional NGS count over selection days 2 and 3 (reads of this peptide / all reads for the bait, averaged over …"}
{"variant": "chain 1 P8S", "screen value": "0.000677 average fractional NGS count over selection days 2 and 3 (reads of this peptide / all reads for the bait, averaged over …"}
{"variant": "chain 1 L1D", "screen value": "0.00232 average fractional NGS count over selection days 2 and 3 (reads of this peptide / all reads for the bait, averaged over …"}
{"variant": "chain 1 P2E", "screen value": "0.000462 average fractional NGS count over selection days 2 and 3 (reads of this peptide / all reads for the bait, averaged over …"}
{"variant": "chain 1 R15D", "screen value": "0.000883 average fractional NGS count over selection days 2 and 3 (reads of this peptide / all reads for the bait, averaged over …"}
{"variant": "chain 1 R15I", "screen value": "0.00013 average fractional NGS count over selection days 2 and 3 (reads of this peptide / all reads for the bait, averaged over …"}
{"variant": "chain 1 R15E", "screen value": "0.0203 average fractional NGS count over selection days 2 and 3 (reads of this peptide / all reads for the bait, averaged over …"}
{"variant": "chain 1 R15A", "screen value": "0.000604 average fractional NGS count over selection days 2 and 3 (reads of this peptide / all reads for the bait, averaged over …"}
{"variant": "chain 1 H3V", "screen value": "0.00187 average fractional NGS count over selection days 2 and 3 (reads of this peptide / all reads for the bait, averaged over …"}
{"variant": "chain 1 Q5T", "screen value": "0.00193 average fractional NGS count over selection days 2 and 3 (reads of this peptide / all reads for the bait, averaged over …"}
{"variant": "chain 1 R15L", "screen value": "0.000467 average fractional NGS count over selection days 2 and 3 (reads of this peptide / all reads for the bait, averaged over …"}
{"variant": "chain 1 P2A", "screen value": "0.00048 average fractional NGS count over selection days 2 and 3 (reads of this peptide / all reads for the bait, averaged over …"}
{"variant": "chain 1 L1I", "screen value": "0.00049 average fractional NGS count over selection days 2 and 3 (reads of this peptide / all reads for the bait, averaged over …"}
{"variant": "chain 1 R15K", "screen value": "0.00112 average fractional NGS count over selection days 2 and 3 (reads of this peptide / all reads for the bait, averaged over …"}
{"variant": "chain 1 D10Q", "screen value": "0.00104 average fractional NGS count over selection days 2 and 3 (reads of this peptide / all reads for the bait, averaged over …"}
{"variant": "chain 1 H3Y", "screen value": "0.00044 average fractional NGS count over selection days 2 and 3 (reads of this peptide / all reads for the bait, averaged over …"}
{"variant": "chain 1 F14P", "screen value": "0.000325 average fractional NGS count over selection days 2 and 3 (reads of this peptide / all reads for the bait, averaged over …"}
{"variant": "chain 1 P2G", "screen value": "0.000225 average fractional NGS count over selection days 2 and 3 (reads of this peptide / all reads for the bait, averaged over …"}
{"variant": "chain 1 F14V", "screen value": "0.000585 average fractional NGS count over selection days 2 and 3 (reads of this peptide / all reads for the bait, averaged over …"}
{"variant": "chain 1 Q12A", "screen value": "0.00503 average fractional NGS count over selection days 2 and 3 (reads of this peptide / all reads for the bait, averaged over …"}
{"variant": "chain 1 H3G", "screen value": "0.000244 average fractional NGS count over selection days 2 and 3 (reads of this peptide / all reads for the bait, averaged over …"}
{"variant": "chain 1 L4E", "screen value": "0.00039 average fractional NGS count over selection days 2 and 3 (reads of this peptide / all reads for the bait, averaged over …"}
{"variant": "chain 1 S13Y", "screen value": "0.00204 average fractional NGS count over selection days 2 and 3 (reads of this peptide / all reads for the bait, averaged over …"}
{"variant": "chain 1 P8M", "screen value": "0.00437 average fractional NGS count over selection days 2 and 3 (reads of this peptide / all reads for the bait, averaged over …"}
{"variant": "chain 1 R15V", "screen value": "0.00361 average fractional NGS count over selection days 2 and 3 (reads of this peptide / all reads for the bait, averaged over …"}
{"variant": "chain 1 L4D", "screen value": "0.00145 average fractional NGS count over selection days 2 and 3 (reads of this peptide / all reads for the bait, averaged over …"}
{"variant": "chain 1 L1G", "screen value": "0.000775 average fractional NGS count over selection days 2 and 3 (reads of this peptide / all reads for the bait, averaged over …"}
{"variant": "chain 1 Q5S", "screen value": "0.000417 average fractional NGS count over selection days 2 and 3 (reads of this peptide / all reads for the bait, averaged over …"}
{"variant": "chain 1 L1W", "screen value": "0.000782 average fractional NGS count over selection days 2 and 3 (reads of this peptide / all reads for the bait, averaged over …"}
{"variant": "chain 1 S7L", "screen value": "0.00604 average fractional NGS count over selection days 2 and 3 (reads of this peptide / all reads for the bait, averaged over …"}
{"variant": "chain 1 P8K", "screen value": "0.000693 average fractional NGS count over selection days 2 and 3 (reads of this peptide / all reads for the bait, averaged over …"}
{"variant": "chain 1 P2F", "screen value": "0.00201 average fractional NGS count over selection days 2 and 3 (reads of this peptide / all reads for the bait, averaged over …"}
{"variant": "chain 1 R15N", "screen value": "0.000839 average fractional NGS count over selection days 2 and 3 (reads of this peptide / all reads for the bait, averaged over …"}
{"variant": "chain 1 L1M", "screen value": "0.00036 average fractional NGS count over selection days 2 and 3 (reads of this peptide / all reads for the bait, averaged over …"}
{"variant": "chain 1 R15M", "screen value": "0.00237 average fractional NGS count over selection days 2 and 3 (reads of this peptide / all reads for the bait, averaged over …"}
{"variant": "chain 1 D10I", "screen value": "0.000221 average fractional NGS count over selection days 2 and 3 (reads of this peptide / all reads for the bait, averaged over …"}
{"variant": "chain 1 Q12I", "screen value": "0.000382 average fractional NGS count over selection days 2 and 3 (reads of this peptide / all reads for the bait, averaged over …"}
{"variant": "chain 1 L1P", "screen value": "0.000357 average fractional NGS count over selection days 2 and 3 (reads of this peptide / all reads for the bait, averaged over …"}
{"variant": "chain 1 P8Y", "screen value": "0.000667 average fractional NGS count over selection days 2 and 3 (reads of this peptide / all reads for the bait, averaged over …"}
{"variant": "chain 1 P8L", "screen value": "0.00187 average fractional NGS count over selection days 2 and 3 (reads of this peptide / all reads for the bait, averaged over …"}
{"variant": "chain 1 Q5E", "screen value": "0.000543 average fractional NGS count over selection days 2 and 3 (reads of this peptide / all reads for the bait, averaged over …"}
{"variant": "chain 1 Q12Y", "screen value": "0.000794 average fractional NGS count over selection days 2 and 3 (reads of this peptide / all reads for the bait, averaged over …"}
{"variant": "chain 1 D10E", "screen value": "0.00381 average fractional NGS count over selection days 2 and 3 (reads of this peptide / all reads for the bait, averaged over …"}
{"variant": "chain 1 L1R", "screen value": "0.000257 average fractional NGS count over selection days 2 and 3 (reads of this peptide / all reads for the bait, averaged over …"}
{"variant": "chain 1 P8Q", "screen value": "0.00268 average fractional NGS count over selection days 2 and 3 (reads of this peptide / all reads for the bait, averaged over …"}
{"variant": "chain 1 S7P", "screen value": "0.00153 average fractional NGS count over selection days 2 and 3 (reads of this peptide / all reads for the bait, averaged over …"}
{"variant": "chain 1 L4A", "screen value": "0.00506 average fractional NGS count over selection days 2 and 3 (reads of this peptide / all reads for the bait, averaged over …"}
{"variant": "chain 1 Q5V", "screen value": "0.001 average fractional NGS count over selection days 2 and 3 (reads of this peptide / all reads for the bait, averaged over …"}
{"variant": "chain 1 Q12H", "screen value": "0.0118 average fractional NGS count over selection days 2 and 3 (reads of this peptide / all reads for the bait, averaged over …"}
{"variant": "chain 1 D10T", "screen value": "0.000156 average fractional NGS count over selection days 2 and 3 (reads of this peptide / all reads for the bait, averaged over …"}
{"variant": "chain 1 P2S", "screen value": "0.000402 average fractional NGS count over selection days 2 and 3 (reads of this peptide / all reads for the bait, averaged over …"}
{"variant": "chain 1 P8I", "screen value": "0.00231 average fractional NGS count over selection days 2 and 3 (reads of this peptide / all reads for the bait, averaged over …"}
{"variant": "chain 1 H3T", "screen value": "0.000309 average fractional NGS count over selection days 2 and 3 (reads of this peptide / all reads for the bait, averaged over …"}
{"variant": "chain 1 P8E", "screen value": "0.00169 average fractional NGS count over selection days 2 and 3 (reads of this peptide / all reads for the bait, averaged over …"}
{"variant": "chain 1 S7D", "screen value": "0.000477 average fractional NGS count over selection days 2 and 3 (reads of this peptide / all reads for the bait, averaged over …"}
{"variant": "chain 1 Q12N", "screen value": "0.00115 average fractional NGS count over selection days 2 and 3 (reads of this peptide / all reads for the bait, averaged over …"}
{"variant": "chain 1 H3A", "screen value": "0.000153 average fractional NGS count over selection days 2 and 3 (reads of this peptide / all reads for the bait, averaged over …"}
{"variant": "chain 1 S7T", "screen value": "0.00126 average fractional NGS count over selection days 2 and 3 (reads of this peptide / all reads for the bait, averaged over …"}
{"variant": "chain 1 P2I", "screen value": "0.000822 average fractional NGS count over selection days 2 and 3 (reads of this peptide / all reads for the bait, averaged over …"}
{"variant": "chain 1 Q5P", "screen value": "0.000217 average fractional NGS count over selection days 2 and 3 (reads of this peptide / all reads for the bait, averaged over …"}
{"variant": "chain 1 S13T", "screen value": "0.00243 average fractional NGS count over selection days 2 and 3 (reads of this peptide / all reads for the bait, averaged over …"}
{"variant": "chain 1 P2Q", "screen value": "0.000644 average fractional NGS count over selection days 2 and 3 (reads of this peptide / all reads for the bait, averaged over …"}
{"variant": "chain 1 P8A", "screen value": "0.00935 average fractional NGS count over selection days 2 and 3 (reads of this peptide / all reads for the bait, averaged over …"}
{"variant": "chain 1 H3P", "screen value": "0.000298 average fractional NGS count over selection days 2 and 3 (reads of this peptide / all reads for the bait, averaged over …"}
{"variant": "chain 1 S13G", "screen value": "0.00038 average fractional NGS count over selection days 2 and 3 (reads of this peptide / all reads for the bait, averaged over …"}
{"variant": "chain 1 L1Q", "screen value": "0.00289 average fractional NGS count over selection days 2 and 3 (reads of this peptide / all reads for the bait, averaged over …"}
{"variant": "chain 1 Q12L", "screen value": "0.00741 average fractional NGS count over selection days 2 and 3 (reads of this peptide / all reads for the bait, averaged over …"}
{"variant": "chain 1 S7E", "screen value": "0.00893 average fractional NGS count over selection days 2 and 3 (reads of this peptide / all reads for the bait, averaged over …"}
{"variant": "chain 1 Q5K", "screen value": "0.0003 average fractional NGS count over selection days 2 and 3 (reads of this peptide / all reads for the bait, averaged over …"}
{"variant": "chain 1 P2V", "screen value": "0.00125 average fractional NGS count over selection days 2 and 3 (reads of this peptide / all reads for the bait, averaged over …"}
